Earlier results in article PMC4740388.
Values joined by “and” are separate entries in the source; they are usually repeats but may differ in a detail not shown here. Identical values can stand only once. Like-named read-outs stand apart in the source and are kept apart here. Blank lines part the entries; values can stand above or below the substance they belong to.

What was measured:
[1] = target: VEGFR1 ectodomain (Homo sapiens) (UniProt P17948)
[2] = target: VEGFR2 ectodomain (Homo sapiens) (UniProt P35968)
[3] = target: Integrin α5β1 (Homo sapiens) (UniProt P08648)
Sequence of Integrin α5β1 (Homo sapiens) (P08648 42-995, chain 1 of 2): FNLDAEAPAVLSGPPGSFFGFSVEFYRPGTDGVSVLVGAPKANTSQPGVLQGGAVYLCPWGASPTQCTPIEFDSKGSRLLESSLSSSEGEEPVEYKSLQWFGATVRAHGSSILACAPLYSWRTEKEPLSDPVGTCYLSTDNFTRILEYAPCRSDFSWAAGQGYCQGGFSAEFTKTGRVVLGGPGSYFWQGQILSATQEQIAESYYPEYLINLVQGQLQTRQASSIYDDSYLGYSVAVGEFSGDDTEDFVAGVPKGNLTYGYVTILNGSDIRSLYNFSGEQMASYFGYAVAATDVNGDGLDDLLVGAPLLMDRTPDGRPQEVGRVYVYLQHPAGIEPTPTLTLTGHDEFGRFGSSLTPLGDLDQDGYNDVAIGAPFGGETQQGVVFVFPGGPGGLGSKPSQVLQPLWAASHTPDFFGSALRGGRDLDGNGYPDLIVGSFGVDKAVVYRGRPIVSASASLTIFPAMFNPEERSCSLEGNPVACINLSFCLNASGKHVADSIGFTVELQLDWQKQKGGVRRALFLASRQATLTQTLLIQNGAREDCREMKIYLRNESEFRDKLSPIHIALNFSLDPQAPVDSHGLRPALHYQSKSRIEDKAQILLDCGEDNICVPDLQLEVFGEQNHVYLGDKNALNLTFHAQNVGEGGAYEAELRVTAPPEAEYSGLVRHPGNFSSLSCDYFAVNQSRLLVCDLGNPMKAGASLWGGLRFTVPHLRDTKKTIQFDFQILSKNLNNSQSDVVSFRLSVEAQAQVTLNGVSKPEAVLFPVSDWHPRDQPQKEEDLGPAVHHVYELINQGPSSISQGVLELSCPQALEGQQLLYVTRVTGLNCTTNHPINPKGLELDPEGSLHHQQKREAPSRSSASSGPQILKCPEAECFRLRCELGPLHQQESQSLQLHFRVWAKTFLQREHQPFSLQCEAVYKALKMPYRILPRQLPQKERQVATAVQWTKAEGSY
Sequence of Integrin α5β1 (Homo sapiens) (P05556 21-728, chain 2 of 2, further chain): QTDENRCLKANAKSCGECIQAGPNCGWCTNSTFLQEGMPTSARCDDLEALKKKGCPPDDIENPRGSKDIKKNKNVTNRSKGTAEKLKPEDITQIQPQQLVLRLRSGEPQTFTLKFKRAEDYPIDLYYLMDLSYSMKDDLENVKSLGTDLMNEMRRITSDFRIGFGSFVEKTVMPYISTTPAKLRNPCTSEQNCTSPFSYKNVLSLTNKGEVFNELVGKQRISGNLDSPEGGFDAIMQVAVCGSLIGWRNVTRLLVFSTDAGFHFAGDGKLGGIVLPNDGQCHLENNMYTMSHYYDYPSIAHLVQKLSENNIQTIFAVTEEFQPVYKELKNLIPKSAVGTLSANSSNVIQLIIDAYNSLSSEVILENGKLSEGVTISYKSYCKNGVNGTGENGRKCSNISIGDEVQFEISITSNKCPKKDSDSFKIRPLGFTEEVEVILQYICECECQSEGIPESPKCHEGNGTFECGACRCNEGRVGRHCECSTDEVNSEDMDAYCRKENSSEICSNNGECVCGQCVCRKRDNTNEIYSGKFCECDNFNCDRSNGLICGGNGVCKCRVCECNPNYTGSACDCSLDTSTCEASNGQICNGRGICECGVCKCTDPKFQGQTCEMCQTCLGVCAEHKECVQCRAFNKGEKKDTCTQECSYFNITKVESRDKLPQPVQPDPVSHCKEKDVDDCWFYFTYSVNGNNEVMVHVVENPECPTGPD

Nucleolin (Homo sapiens) = Nucleolin (Homo sapiens) (UniProt P19338)
Sequence of Nucleolin (Homo sapiens) (P19338 2-710): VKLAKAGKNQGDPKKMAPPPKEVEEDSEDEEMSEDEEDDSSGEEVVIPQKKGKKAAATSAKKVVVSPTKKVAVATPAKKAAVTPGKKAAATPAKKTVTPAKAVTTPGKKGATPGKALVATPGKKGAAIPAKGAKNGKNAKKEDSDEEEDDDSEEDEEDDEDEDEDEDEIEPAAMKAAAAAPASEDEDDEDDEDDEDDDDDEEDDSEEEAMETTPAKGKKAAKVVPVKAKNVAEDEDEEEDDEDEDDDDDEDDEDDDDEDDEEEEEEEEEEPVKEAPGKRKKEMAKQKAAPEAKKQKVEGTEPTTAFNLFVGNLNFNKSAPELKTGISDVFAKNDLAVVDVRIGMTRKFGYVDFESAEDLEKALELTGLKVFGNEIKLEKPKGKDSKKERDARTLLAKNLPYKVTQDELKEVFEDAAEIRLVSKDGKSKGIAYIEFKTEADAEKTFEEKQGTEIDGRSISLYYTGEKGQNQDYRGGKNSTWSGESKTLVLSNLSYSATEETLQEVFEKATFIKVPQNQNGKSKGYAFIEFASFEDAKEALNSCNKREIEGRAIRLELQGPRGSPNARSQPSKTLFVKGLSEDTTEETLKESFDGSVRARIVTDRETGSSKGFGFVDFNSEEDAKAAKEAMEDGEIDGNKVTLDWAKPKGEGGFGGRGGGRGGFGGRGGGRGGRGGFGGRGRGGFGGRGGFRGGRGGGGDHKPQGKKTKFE

[4] = target: Integrin αvβ3 (Homo sapiens) (UniProt P06756)
Sequence of Integrin αvβ3 (Homo sapiens) (P06756 31-992, chain 1 of 2): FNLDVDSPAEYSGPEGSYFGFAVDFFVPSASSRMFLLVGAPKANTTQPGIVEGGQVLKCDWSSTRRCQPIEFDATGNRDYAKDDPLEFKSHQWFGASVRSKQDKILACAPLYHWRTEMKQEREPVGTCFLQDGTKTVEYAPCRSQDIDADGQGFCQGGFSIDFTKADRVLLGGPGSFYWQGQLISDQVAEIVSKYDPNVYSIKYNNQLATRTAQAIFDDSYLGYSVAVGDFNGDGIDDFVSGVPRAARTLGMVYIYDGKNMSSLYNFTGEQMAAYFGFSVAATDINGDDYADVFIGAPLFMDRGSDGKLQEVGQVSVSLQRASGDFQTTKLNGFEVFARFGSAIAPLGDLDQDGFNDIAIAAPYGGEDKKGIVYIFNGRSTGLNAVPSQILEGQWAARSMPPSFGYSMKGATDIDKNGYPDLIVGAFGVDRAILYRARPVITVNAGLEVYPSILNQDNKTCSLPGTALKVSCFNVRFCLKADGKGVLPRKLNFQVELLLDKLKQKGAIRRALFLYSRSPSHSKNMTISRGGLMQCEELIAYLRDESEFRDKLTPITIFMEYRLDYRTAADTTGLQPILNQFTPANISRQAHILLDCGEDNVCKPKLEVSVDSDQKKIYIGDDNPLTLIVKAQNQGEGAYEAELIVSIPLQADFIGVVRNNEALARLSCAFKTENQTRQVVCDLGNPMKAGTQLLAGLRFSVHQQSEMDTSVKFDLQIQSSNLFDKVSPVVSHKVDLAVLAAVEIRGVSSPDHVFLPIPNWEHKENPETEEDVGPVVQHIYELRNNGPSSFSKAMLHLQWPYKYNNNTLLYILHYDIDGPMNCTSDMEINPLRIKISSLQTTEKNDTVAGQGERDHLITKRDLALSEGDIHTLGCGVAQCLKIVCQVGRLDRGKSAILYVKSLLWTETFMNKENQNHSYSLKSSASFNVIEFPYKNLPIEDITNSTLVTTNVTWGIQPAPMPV
Sequence of Integrin αvβ3 (Homo sapiens) (P05106 27-718, chain 2 of 2, further chain): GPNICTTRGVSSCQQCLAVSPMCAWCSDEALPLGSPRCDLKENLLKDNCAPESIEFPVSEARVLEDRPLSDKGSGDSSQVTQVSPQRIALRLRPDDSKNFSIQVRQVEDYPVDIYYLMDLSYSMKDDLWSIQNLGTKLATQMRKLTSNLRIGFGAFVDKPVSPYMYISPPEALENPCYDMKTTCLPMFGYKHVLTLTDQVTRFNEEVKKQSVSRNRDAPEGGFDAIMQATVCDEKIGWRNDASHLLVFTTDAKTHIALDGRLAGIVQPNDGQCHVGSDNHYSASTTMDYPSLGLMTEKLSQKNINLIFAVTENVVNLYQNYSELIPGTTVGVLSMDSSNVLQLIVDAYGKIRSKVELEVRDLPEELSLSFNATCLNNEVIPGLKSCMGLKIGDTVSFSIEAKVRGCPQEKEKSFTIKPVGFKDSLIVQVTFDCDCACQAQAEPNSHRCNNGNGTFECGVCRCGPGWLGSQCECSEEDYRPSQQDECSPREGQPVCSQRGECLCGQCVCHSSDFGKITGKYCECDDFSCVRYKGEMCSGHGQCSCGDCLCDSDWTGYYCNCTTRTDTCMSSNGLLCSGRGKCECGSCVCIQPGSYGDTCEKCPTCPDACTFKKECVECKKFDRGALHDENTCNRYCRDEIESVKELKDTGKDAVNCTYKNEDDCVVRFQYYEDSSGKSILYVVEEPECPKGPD

[5] = target: Integrin αvβ3 (Homo sapiens) (UniProt P06756); remark: listed apart in the source

Sequence of Endostatin endostatin (P39060 1569-1754): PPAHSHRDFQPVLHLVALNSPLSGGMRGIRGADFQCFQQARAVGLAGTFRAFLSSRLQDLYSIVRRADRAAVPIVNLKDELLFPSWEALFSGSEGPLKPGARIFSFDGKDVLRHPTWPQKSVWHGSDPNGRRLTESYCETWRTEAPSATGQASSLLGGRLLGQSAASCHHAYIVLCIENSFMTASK
Sequence of Endorepellin endorepellin (P98160 3684-4391): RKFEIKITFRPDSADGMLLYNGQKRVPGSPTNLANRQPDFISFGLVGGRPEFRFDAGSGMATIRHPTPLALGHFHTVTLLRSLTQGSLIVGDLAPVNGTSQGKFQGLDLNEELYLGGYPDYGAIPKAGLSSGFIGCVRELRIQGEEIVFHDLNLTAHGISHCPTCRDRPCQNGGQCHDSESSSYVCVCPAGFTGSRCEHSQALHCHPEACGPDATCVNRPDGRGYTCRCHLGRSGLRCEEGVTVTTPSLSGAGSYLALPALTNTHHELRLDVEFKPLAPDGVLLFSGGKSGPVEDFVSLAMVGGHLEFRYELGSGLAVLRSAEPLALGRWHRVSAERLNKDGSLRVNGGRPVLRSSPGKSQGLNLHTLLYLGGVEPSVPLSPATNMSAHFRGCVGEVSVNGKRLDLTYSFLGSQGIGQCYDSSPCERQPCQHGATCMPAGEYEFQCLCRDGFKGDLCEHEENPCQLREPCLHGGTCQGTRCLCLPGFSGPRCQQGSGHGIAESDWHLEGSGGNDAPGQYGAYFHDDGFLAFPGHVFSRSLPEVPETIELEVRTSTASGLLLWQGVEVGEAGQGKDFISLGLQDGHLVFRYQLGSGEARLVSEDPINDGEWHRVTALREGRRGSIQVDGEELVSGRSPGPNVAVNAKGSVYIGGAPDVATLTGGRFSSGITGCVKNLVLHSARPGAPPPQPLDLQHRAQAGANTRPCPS

Kd [1]: 1 nM
Kd [2]: 0.9 nM
Substance: Endorepellin endorepellin (from UniProt P98160)

Kd [3]: 975 nM and 451 nM
Kd (Nucleolin (Homo sapiens)): 13 nM
Kd [4]: 501 nM and 1200 nM
Substance: Endostatin endostatin (from UniProt P39060)

Kd [5]: 148 nM
Substance: Tetrastatin tetrastatin (from UniProt P53420)
